Source: article PMC11514443 (Structure (London, England : 1993), 2019)

Tested on: A/Udorn/72 (H3N2) influenza virus
Format: cell-based, A/Udorn/72 (H3N2) influenza virus; human HEK293T cells

B1: WT MORC3 (protein, UniProt Q14149 1-939, looked up)
MORC family CW-type zinc …: MAAQPPRGIRLSALCPKFLHTNSTSHTWPFSAVAELIDNAYDPDVNAKQIWIDKTVINDHICLTFTDNGNGMTSDKLHKMLSFGFSDKVTMNGHVPVGLYGNGFKSGSMRLGKDAIVFTKNGESMSVGLLSQTYLEVIKAEHVVVPIVAFNKHRQMINLAESKASLAAILEHSLFSTEQKLLAELDAIIGKKGTRIIIWNLRSYKNATEFDFEKDKYDIRIPEDLDEITGKKGYKKQERMDQIAPESDYSLRAYCSILYLKPRMQIILRGQKVKTQLVSKSLAYIERDVYRPKFLSKTVRITFGFNCRNKDHYGIMMYHRNRLIKAYEKVGCQLRANNMGVGVVGIIECNFLKPTHNKQDFDYTNEYRLTITALGEKLNDYWNEMKVKKNTEYPLNLPVEDIQKRPDQTWVQCDACLKWRKLPDGMDQLPEKWYCSNNPDPQFRNCEVPEEPEDEDLVHPTYEKTYKKTNKEKFRIRQPEMIPRINAELLFRPTALSTPSFSSPKESVPRRHLSEGTNSYATRLLNNHQVPPQSEPESNSLKRRLSTRSSILNAKNRRLSSQFENSVYKGDDDDEDVIILEENSTPKPAVDHDIDMKSEQSHVEQGGVQVEFVGDSEPCGQTGSTSTSSSRCDQGNTAATQTEVPSLVVKKEETVEDEIDVRNDAVILPSCVEAEAKIHETQETTDKSADDAGCQLQELRNQLLLVTEEKENYKRQCHMFTDQIKVLQQRILEMNDKYVKKETCHQSTETDAVFLLESINGKSESPDHMVSQYQQALEEIERLKKQCSALQHVKAECSQCSNNESKSEMDEMAVQLDDVFRQLDKCSIERDQYKSEVELLEMEKSQIRSQCEELKTEVEQLKSTNQQTATDVSTSSNIEESVNHMDGESLKLRSLRVNVGQLLAMIVPDLDLQQVNYDVDVVDEILGQVVEQMSEISST
  viral infectivity: slight increase in viral infectivity
